The DeepSol protein solubility set

test: soluble on expression in E. coli; label from the status in PepcDB or PDB records

Sequence | soluble on expression in E. coli
MPAVSKGDGMRGLAVFISDIRNCKSKEAEIKRINKELANIRSKFKGDKALDGYSKKKYVCKLLFIFLLGHDIDFGHMEAVNLLSSNRYTEKQIGYLFISVLVNSNSELIRLINNAIKNDLASRNPTFMGLALHCIANVGSREMAEAFAGEIPKILVAGDTMDSVKQSAALCLLRLYRTSPDLVPMGDWTSRVVHLLNDQHLGVVTAATSLITTLAQKNPEEFKTSVSLAVSRLSRIVTSASTDLQDYTYYFVPAPWLSVKLLRLLQCYPPPEDPAVRGRLTECLETILNKAQEPPKSKKVQHSNAKNAVLFEAISLIIHHDSEPNLLVRACNQLGQFLQHRETNLRYLALESMCTLASSEFSHEAVKTHIETVINALKTERDVSVRQRAVDLLYAMCDRSNAQQIVAEMLSYLETADYSIREEIVLKVAILAEKYAVDYTWYVDTILNLIRIAGDYVSEEVWYRVIQIVINRDDVQGYAAKTVFEALQAPACHENLVKVGGYILGEFGNLIAGDPRSSPLIQFNLLHSKFHLCSVPTRALLLSTYIKFVNLFPEVKATIQDVLRSDSQLKNADVELQQRAVEYLRLSTVASTDILATVLEEMPPFPERESSILAKLKKKKGGS | soluble
MGSFPNFGAFILRAQEKDGRTCINGLPVASPAKQMLGRFPYLQSLQHDNLSVYLHFSETVIARDLVIVVMEHYTMNLEDILKTGNLKDESLNNNFYSEISSALDYLHTRNIVHGFLHLNSIYITDRKNQKLSVKLSGYGLPFLTNYGKDTASSIKFGAFLAPERILNDEDSLFAATYQSDVWELGFIILQIYLGISLEAEVTETEYLEILNKYYTDDQEKLSTVMEDLIQLLADKKRLPYHKKCEWLEAIIRKCLQMCCSKRCSITEVAAEIEININGVKNNNNKYEYKVKTVEEMRAAVRKEVADNNDGFEKLSVENSFYLWKTCGSTPEIILLKKGIIQNHAPISSYPTVRFDDFLRLDSGVDSQSTFEYGVFDLPSKKTLTRKETGQRVSARMFHKIGILEDKDLLNGNILYETASNMLTVDHLLNASAVFGISSIISRLTNIGVIPTQRADVWCTLLDINETKWRDYLNLDVLASHSSDRQLEVDIPRCHQYDSYMTTPAIQESLRKVLKGWQIVTESQHFVYWQGCDSLATPFLLANMSKPHVAFACFKEFTYRYCHKFYLKDNSEVIKEYLGIFYHLVAYTDPVLYKHLKINGFDAELFAIPWFLTCFAHELPLSKLVLLWDETMMHGNAFPLMIALAMLNRLRDKLLAVNFNEMIIIIHDQPDLSIDEIIKNSRGYEKLIPPSCTFRAHASPWKGTSLSLQQLSSIHCPRMSSEELIWRIERKMVYVLDTRQESEFQSERFSDSFNHPNNNHEADIDWLRFLPGIVCSELPKCFVYGKNDKEAAERLTEAYVMKGVPYICLLHDHFEAVRNRDSVVVKP | not soluble
MSLANAIRRSIPKLNRALVLPAFRSFHDEFSSKIPLEDIRKQTKGKEQHVPSARSIAAKYQVFRDTDAPVILDVDEERQIHEAGLQQPEKIHDLPDMYSGINLSRGKTGVYEIEDLVTVLRLNSAINIFVCTVPKDIKYVDYMCIVTGRSVRHMRGMAEFVRKVFKMKRHPSDIIPKIEGESSSDWMALDLGNIALHIFSTKAREQYDLESLWSVGSEFDREYNKPSEELVQLFEKHTIYLDDLKPLKKEGHHHHHH | not soluble
MTEALELGDCLLSGAVGLVVKRRSGIAEDVARLVVKELVESGVEVLVDETVDYPSLSGFPRFSISRDPPGRVVVVGGDGTLLRTFLRLGERESPLFMTIKAGKKGFLLDVERYEAVERLRDFLEGRFREVVYPRYRVYLEGEARACMFNDTAVTANNAKMARVHVFVDGDLAMNIDGDGVVVSTTAGSTAYSLSGGGPIIDPRLDVIVLTPLNPVQLFLRSIVVPSGSRVTVEASVYSNPLVVNIDGQYVYELEPGGIVDIERCGSGVRIARFRWWEDYYERLYTRLLAYWAAALEHHHHHH | not soluble
MTDIAKLEPTAVWEHFQTLCDIPRPSKHEEQVRDYMKGWAELRGLETVVDKVGNLIIRKPATPGYEDRAGVVLQGHLDMVCQANSGTEHDFFKDPIRPVLKDGWLVAENTTLGADNGIGVALGMAVLSGDDVAHGPVEVLLTLDEEAGMGGALGLETGLLRGQYLINIDTEEWGEFYMGCAGGVDVNVTREYAVEAVPAGFQTASLTIKGLKGGHSGADIHLGRGNANKILIRLLRELEAETELRLSSLQGGTARNALSREAFAVVAYPTADAAKVAAKLDAFQALMRFELAGVDEGVSVLSEAAPAAGVLARADQDVILAALHAAPHGVKRMSQRVEGVVETSNNLGVVSVADGKVFANLMVRSLLDSGTWMLAREAESLFKLAAFKVEMEGGYPGWAPNPQSKLLALFKDVYRREFGAEAEVQVIHAGLECGILGSKYPNLDMVSFGPNIRGAHAPGERVEVESVGKAWQLLQAVLKAIPARLEHHHHHH | soluble
MDPFDEIVIKNYLSFPLVLQKLLSIKKLRRIEFFSQNMATHIVFDELGMTTKGFRPDKEVEKLLLKLELIDKRIERTLFRQKHFERFWATLKPLEQQLLIRRFKYKEEVNCPHRLIESVLDEIEEIETAICLMENIELEENELSDDVEENLERMCDFFAL | not soluble
MEYMVLIYRDEAFAPEYGSPEWEQMMGGFLAFNQRLIDGGHWIAGGGLQTTPSATTVRLAAGTVPKVLDGPYAETKEQLGGFYLVRADTLDEVLDLARSLPIEGAIEVRPLTYRPTGE | not soluble
MKIHPTAIIDPKAELHESVEVGPYSIIEGNVSIQEGTIIEGHVKICAGSEIGKFNRFHQGAVIGVMPQDLGFNQQLLTKTVIGDHNIFREYSNIHKGTKEDSPTVIGNKNYFMGNSHVGHDCILGNNNILTHGAVLAGHVTLGNFAFISGLVAVHQFCFVGDYSMVAGLAKVVQDVPPYSTVDGNPSTVVGLNSVGMKRAGFSPEVRNAIKHAYKVIYHSGISTRKALDELEASGNLIEQVKYIIKFFRDSDRGVTNHR | soluble
ERNKVESTLLDKVLFLETLVDTIPAPVFYKDREGIYRGCNDLFAKMILGIPKEKVAGCSIDEFLEKIPQELGNVYKRTDRQLLQRGGSLIYESRIMCSDGLLRQFLINKAAYRNLNGDMEGLVGVMLDIT | not soluble
MLPHSGRMVLIDRITRYGDDFVEAGAQVKPDHILLAGGMLPYTAFIELMAQAVGAYAGIQARKNARPVRLGFLPGTRKLEIFAQSVPVGTHLPATAHMSIQDAGVWACPTANCVGRMRRKLRPEHSFQTAFWHAPHSTCTAPNTMTEQLTPSEQAHIRRTTMTETVLITGSNRGIGKAAALEHHHHHH | not soluble
MSLSQERFRVKYQIFEESKRAKEIAEAICVEQTIEFPIELTGNSIRENVVGKIEEIQNNHNSTVVTISYPVETVGNEPAQFFNVIMGNCSLFPNLKIIGLQLSPSIENIFPGPRYGISGLRKLLSIYNRPLLATAIKPMGLSTDQLAQMAYNLALGGVDIIKDDHGLADQPFSKFKDRVLKVTEAIHKANRETGFHTIYAPNITSNEQTMLKQAEFVKEAGSGALLVSPALSGFSSFITLRENTDLPILSHPAFLGGYLSIMDFDVLFGTIQRMIGADVVIFPNYGGRFTFSKEDCRKINHGLKKPFGSFKEIFPSPAGGMNIDSCGDIVSFYNKDVVLLIGGALHKAGADLTENVKAFKAQVEKIHVREGHHHHHH | soluble
LHPFFRSFALRASAHPVLSADFESAFAAARHAAPATAAAVQTAERLPEWNLTDLYPAMDSPELKADLDKADVACKAFETAFKGKLAALLALPDGGAALGAAVKSYEEVDDLLGRIASYGSLIYAGDTSDPARAKFYGDIQERLTDASTHLLFFTLEMNRLDDAALEAAMADPALGYYRPWVEDLRKDKPYQLDDKIEQLFHEKSNPSRGAWSRLFDETISSLRFTVDGQDLAIEPTLNLMQDPREEVRKSAGLALADTFGKNLRLFTLITNTLAKDKEISDRWRGFEDVASSRHLANRVEKEVVDAMVEAIRVSFPRLSHRYYALKARWFGKDRLEFWDRNAPLPKVETRDIGWGEAKDTVLSAYGAFSPKMADIAKTFFEKSWIDAPVRPGKSPGAFAHPTVPSAHPYVLLNYQGKPRDVMTLAHELGHGVHQVLAARQGALMAPTPLTLAETASVFGEMLTFRRLLDGAETPRARKIMLAQKVEDMINTVVRQTAFYTFERDVHIERRQGELTSEKIGEIWMKVQGESLGPAIHLGAGYETFWTYIPHFIHSPFYVYAYAFGDCLVNSLYAVYENAADGFADRYLEMLSAGGTKHHAELLAPFGLDARDPAFWQTGLSLIDRMISELESMEG | soluble
MGSDKIHHHHHHMSEHLTLPTNKPQVTHFSSGPCAKHPGWSVSNLENACLGRSHRSEDGKAKLSEVIERSKQILGLPADYRLGIVPASDTGAVEMALWSLLGQRPLDILAWESFGQEWVKDVVDELKLPDVRLLKAPYGGLPNLDEVDFSHDVVFLWNGTTSGVRVPNGDWIKDDRQGLTICDATSAVFAMDIPWEKIDVLTYSWQKVLGGEAQHGVIVLSPRAVERLQTYEPAWPIPKIFRLSQKGKLIEGIFKGDTINTPSMLCVEDALDALIWAESVGGLPGLISRSEANLAAIAQWVKQSNWADFLAEKPETRSCTSICLKIVDAAFASLSAEDQGKFAKKLAKLLEKQQVAYDIAPYRAAPPGLRIWGGATVETADIEALLPWLDWAYANVKAEFVPVA | not soluble
STGKKPKHHVLSHDIIPASKPIAEKLQIQPESPVVELKRILYNDDQPLTFEVTHYPLDLFPGIDTFIADGVSMHDILKQQYKVVPTHNTKLLNVVYAQQEESKYLDCDIGDALFEIDKTAFTSNDQPIYCSLFLMHTNRVT | not soluble
MDLPDPYLPGAISLFEQLDKKLLVVLRDGRKLIGFLRSIDQFANLILEDVVERTFVEKYFCETGQGFMLIRGENVELAGEIDDTIETGLTQVSPEEFRRLEDEYIAKNPPKFLKRQAEKTEEHDA | not soluble
MGSDKIHHHHHHMDFVDVPAVTRDATILSLRDVSRKLVRELGFMRSTLANSDLAPSAVHAVLEIGMKPGITAKDLATILRLDKSNTSRQIARLEAAGFVERRVSSDDARSSELYLSAEGKSLRARIDRFATSQVSNALRHMAPADQQALLRSLALYANALAQDNAGNAPPATPEAVQIIEGYQPGCIGDIASLHGRFYAAHWGFGAFFEKRVATELAAFAGSLPVDGKALWLYVENGRSLASLAIDGDKTTGIAHLRWFIVDESLHGSGIGRELMARAMRFVETQGFRETHLWTFKGLEAARHLYESHGFRLSEEFEGSQWGTTVTEQRFNRV | not soluble
MAVTWAVSDGRAGNARQAEALARALHPDTVHALHLQARAPWRWAAPRRLPGANSAFGPAFAAQLQQPPGLVIGCGRQAALATRLLRARGSVAVQILDPRLDRRQWDLVVVPEHDALRGENVLTLLGSLHPVDDAWLAAGRAAFPAVGALPGPRVALLIGGPTTQVPWTLQALAAQCNAVQAQVRAAGGSLLITASRRTPPEVVALLRTLQQGNPGLLWCDARDGANPYAGLLGWADAIVASADSVNLLSEACATPVPVVAACAEFARGRVGAYVQALQQRQRLCAADEVLATTAAMTPVRETERIAAQVRMRLGLLEHHHHHH | soluble
MKTIHIRELADWLDGALQAARFKDYCPNGLQVEGKAEIAHIITGVTASEALLRAAIERGADAVLVHHGWFWRNEDRRVLGPRRTRLALALGHELNLLAYHLPLDAHPQWGNNAQLARVLGLQAETGPDGAPRTCGADNLVWLGSAPGVQTVAQLQQRVAERLGRTPLVVGEPDRPVRRVAWCTGGAQGMLADAVDAGADAYITGEASESTVHLARETGVAFVGAGHHATERYGVQALGEAVARQFGIRVEFIDIDNPVLEHHHHHH | not soluble
MFIPQIVPIRDLKNTSAISNLCHKTNEPIFITKNGYGDMVIMSMETYEGNAFFNNLYGNLEEAEMDLQNGRVSGIDEAIEEIKSRYDLEHHHHHH | not soluble
MLSVSPLLQSPSSASMRFLSLDAYGRVLDWISWQDAACLYVRNAVSWTLGDPCLSIHGGISRLTGKRSVIALHPIIASRGHARTYVPVPTPALTNQALFARDDHLCLYCGQQFSRFQLTRDHVIPISKGGLDTWENVVTACFHCNSLKANRTPQQAGMRLLAVPYRPSWIEHLILSNRNILADQMAFLKAQLPKRSKLSRNLEHHHHHH | not soluble
